Laboratory results from paper doi:10.1101/2022.03.13.484121, “Helical ultrastructure of the oncogenic metalloprotease meprin α in complex with a small molecule hydroxamate inhibitor” (bioRxiv, 2022).

How the values were obtained:
[1] = molecular target: the molecule itself; experiment: MALDI-TOF mass spectrometry; C4 ZipTip purified samples, DHAP matrix, linear positive mode; zymogen and mature forms; shows only the covalent (disulphide) dimer
[2] = molecular target: the molecule itself; experiment: electron microscopy (cryo-TEM, 120 kV); inspection of particles of the purified variants

| Protein | stoichiometry N [1] | stoichiometry N [2] |
| --- | --- | --- |
| meprin α, active (mature) form, wild type (enzyme, human (from the printed accession), UniProt Q16819 22-600, looked up, N-linked glycosylations (sites not given in the text), meprin α construct V22-S600 of uniprot Q16819 after removal of the pro-peptide by trypsin; also called active state) NGLRDPNTRWTFPIPYILADNLGLNAKGAILYAFEMFRLKSCVDFKPYEGESSYIIFQQFDGCWSEVGDQHVGQNISIGQGCAYKAIIEHEILHALGFYHEQSRTDRDDYVNIWWDQILSGYQHNFDTYDDSLITDLNTPYDYESLMHYQPFSFNKNASVPTITAKIPEFNSIIGQRLDFSAIDLERLNRMYNCTTTHTLLDHCTFEKANICGMIQGTRDDTDWAHQDSAQAGEVDHTLLGQCTGAGYFMQFSTSSGSAEEAALLESRILYPKRKQQCLQFFYKMTGSPSDRLVVWVRRDDSTGNVRKLVKVQTFQGDDDHNWKIAHVVLKEEQKFRYLFQGTKGDPQNSTGGIYLDDITLTETPCPTGVWTVRNFSQVLENTSKGDKLQSPRFYNSEGYGFGVTLYPNSRESSGYLRLAFHVCSGENDAILEWPVENRQVIITILDQEPDVRNRMSSSMVFTTSKSHTSPAINDTVIWDRPSRVGTYHTDCNCFRSIDLGWSGFISHQMLKRRSFLKNDDLIIFVDFEDITHLS | 2 |  |
| pro-meprin α R372T (enzyme, human (from the printed accession), UniProt Q16819 22-600, looked up, meprin α pro-form V22-S600 of uniprot Q16819 with R372T (removes a salt bridge of the helix interface); SEC-MALS was done on the zymogen (legend S6c); also called Pro-Meprin α variant R372T; source: S2 cells, secreted, purified (HIC-EBA, Strep-Tactin)) VPIKYLPEENVHDADFGEQKDISEINLAAGLDLFQGDILLQKSRNGLRDPNTRWTFPIPYILADNLGLNAKGAILYAFEMFRLKSCVDFKPYEGESSYIIFQQFDGCWSEVGDQHVGQNISIGQGCAYKAIIEHEILHALGFYHEQSRTDRDDYVNIWWDQILSGYQHNFDTYDDSLITDLNTPYDYESLMHYQPFSFNKNASVPTITAKIPEFNSIIGQRLDFSAIDLERLNRMYNCTTTHTLLDHCTFEKANICGMIQGTRDDTDWAHQDSAQAGEVDHTLLGQCTGAGYFMQFSTSSGSAEEAALLESRILYPKRKQQCLQFFYKMTGSPSDRLVVWVRRDDSTGNVTKLVKVQTFQGDDDHNWKIAHVVLKEEQKFRYLFQGTKGDPQNSTGGIYLDDITLTETPCPTGVWTVRNFSQVLENTSKGDKLQSPRFYNSEGYGFGVTLYPNSRESSGYLRLAFHVCSGENDAILEWPVENRQVIITILDQEPDVRNRMSSSMVFTTSKSHTSPAINDTVIWDRPSRVGTYHTDCNCFRSIDLGWSGFISHQMLKRRSFLKNDDLIIFVDFEDITHLS | 2 |  |
| pro-meprin α R372A (enzyme, human (from the printed accession), UniProt Q16819 22-600, looked up, meprin α pro-form V22-S600 of uniprot Q16819 with R372A (removes a salt bridge of the helix interface); source: S2 cells, secreted, purified (HIC-EBA, Strep-Tactin)) VPIKYLPEENVHDADFGEQKDISEINLAAGLDLFQGDILLQKSRNGLRDPNTRWTFPIPYILADNLGLNAKGAILYAFEMFRLKSCVDFKPYEGESSYIIFQQFDGCWSEVGDQHVGQNISIGQGCAYKAIIEHEILHALGFYHEQSRTDRDDYVNIWWDQILSGYQHNFDTYDDSLITDLNTPYDYESLMHYQPFSFNKNASVPTITAKIPEFNSIIGQRLDFSAIDLERLNRMYNCTTTHTLLDHCTFEKANICGMIQGTRDDTDWAHQDSAQAGEVDHTLLGQCTGAGYFMQFSTSSGSAEEAALLESRILYPKRKQQCLQFFYKMTGSPSDRLVVWVRRDDSTGNVAKLVKVQTFQGDDDHNWKIAHVVLKEEQKFRYLFQGTKGDPQNSTGGIYLDDITLTETPCPTGVWTVRNFSQVLENTSKGDKLQSPRFYNSEGYGFGVTLYPNSRESSGYLRLAFHVCSGENDAILEWPVENRQVIITILDQEPDVRNRMSSSMVFTTSKSHTSPAINDTVIWDRPSRVGTYHTDCNCFRSIDLGWSGFISHQMLKRRSFLKNDDLIIFVDFEDITHLS |  | 2 |
| pro-meprin α (V22-S600), wild type (enzyme, human (from the printed accession), UniProt Q16819 22-600, looked up, N-linked glycosylations (sites not given in the text), meprin α, pro-form without signal peptide, EGF-like domain and transmembrane region; V22-S600 of uniprot Q16819; Cloned into pMT/BiP/V5; Subunits form a disulphide-linked (C308) homodimer; the dimers form helical filaments; also called zymogen; wild type meprin α; source: Schneider-2 Drosophila cells (S2), secreted, purified (HIC-EBA, Strep-Tactin)) VPIKYLPEENVHDADFGEQKDISEINLAAGLDLFQGDILLQKSRNGLRDPNTRWTFPIPYILADNLGLNAKGAILYAFEMFRLKSCVDFKPYEGESSYIIFQQFDGCWSEVGDQHVGQNISIGQGCAYKAIIEHEILHALGFYHEQSRTDRDDYVNIWWDQILSGYQHNFDTYDDSLITDLNTPYDYESLMHYQPFSFNKNASVPTITAKIPEFNSIIGQRLDFSAIDLERLNRMYNCTTTHTLLDHCTFEKANICGMIQGTRDDTDWAHQDSAQAGEVDHTLLGQCTGAGYFMQFSTSSGSAEEAALLESRILYPKRKQQCLQFFYKMTGSPSDRLVVWVRRDDSTGNVRKLVKVQTFQGDDDHNWKIAHVVLKEEQKFRYLFQGTKGDPQNSTGGIYLDDITLTETPCPTGVWTVRNFSQVLENTSKGDKLQSPRFYNSEGYGFGVTLYPNSRESSGYLRLAFHVCSGENDAILEWPVENRQVIITILDQEPDVRNRMSSSMVFTTSKSHTSPAINDTVIWDRPSRVGTYHTDCNCFRSIDLGWSGFISHQMLKRRSFLKNDDLIIFVDFEDITHLS | 2 |  |
